Results taken from patent US20230242902A1, “A HIGHLY ERROR-PRONE […] R[…] FOR TARGETED CONTINUOUS EVOLUTION IN VIVO” (The Regents of the University of California, priority 2017, published 2023).
Numbering of substitutions follows the chain as printed. In names and notes the source's numbering stands.

B1: TP-DNAP1-4-2: TP-DNAP1 variant (L477V, L640Y, I777K, W814N), encoded by SEQ ID NO:11 (protein, listed as Kluyveromyces lactis)
chain: MDYKDKALNDLRNVYADFDSLPLDFRQILIKDRATLLQKEDVEKKILERQEDAKKYAEYLKQSEIPERISLPNIKRHKGVSISFEETSEDMVLEPRPFIFDGLNIRCFRRETIFSLKNKILNMVKESSSFKNVSRQSVSFMYFKIFNKGKVIASTKSVNIYEDKIDERLEDLCNNFDDVLKKIIDVTYGYESLFVSETYSYVIFYAKSIYFPQPRCVNNWGNNIPNILTFDSFKLFTANKNNVSCIKQCSRFLWQKDFNTLEEMIEYKNGNICIVTPQLHINDVRDIKSFNDIRLYSESPIKTFSVIDNTITYLFYFKEHLGVIFNITKSRHDRRVTKFSPLSKFSDVKNITVCFDIESYFDPEKESNQVNIPFICCASIIYNKVIGNIVDFEGRDCVAQMIEYVVDICGELNISSVELIAHNGGGYDFHYILSSMYNPAAIKNILIRNNSFISFNFAHDGVKFSVKDSYSFLLCSVANASKAFLNEETFKKTDFPHHDLKTADDLYKVYKEWSSVNTEINHVVEKEKLLITSEHIVNFTKNDKSKTLIEWSKDYCRNDVLVLSKVWLEFKNAVEDIFNCELVDQTMTLAGLSYKLFQANMPFDVELRHPNKEDYFNMREALIGGRCISVNGIYKDVLCYDVKSLYPASMAFYDQPYGSFKRVSSRPKDELGIYYVRVTPNRNNKSNFFPIRSHNKITYNNFEESTYIAWYTNVDIDIGLSEGHNIEYIPFDSYGNIGYSWSKKGKIFEKYIKDVLYKLKIKYEKQNNKVKRNVIKKIMNSLWGKFAQKWVNFEYFIKSEDDIDFESEEAYKINDTDFMLIKKIKESTYSSKPIQNGVFTLSWARYHMKSIWDAGAKEGAECIYSDTDSIFVHKEHFKKNAKFMLNGLKVPIIGSEVGQLELECEFDKLLCAGKKQYMGFYTYFQDGKPCIKEKKRFKGIPSNYIIPELYAHLLSGADKEAKIQFLKFRREWGSVKGYIENKTVKAT
B2: w.t.: wild-type Kluyveromyces lactis DNA polymerase TP-DNAP1, SEQ ID NO:1 (protein, listed as Kluyveromyces lactis)
chain: B1 chain with V477L, Y640L, K777I, N814W
B3: WT: wild-type Kluyveromyces lactis DNA polymerase TP-DNAP2, SEQ ID NO:13 (protein, listed as Kluyveromyces lactis)
chain: MNDELAFLNSQIDDYSDDIEFLRTEVFRINRYSKSIYSLMKNSSKEAIKETIEFNKYGQEIHSKIKEKEISLIEAIKLMEKKYKYLRSLNKTKDKSKKKKIHTKDIETLKTIYKTKADFDIRNFKNAETFTYENYSLLIPSEKELIDLIPEIEEDYSYYFYVSLTITGPTIFGGVTRKVPIIDTYGDINKDFYNKIKENITKVLDRVPFYEEKESEIICKKVLITLTVNKWESIDKWYKNVKSKSKKFKDFTLFLASDTSKNCVQQCVEYLGGKWNTNYSLEKMIPQQKIVTYIPLLMDIQYVQSMEDLISDFDEPNTDCKNIARLLKWNGHMGVITKIDKDVKINRIQRKRIIDVENKEVKEVFFDIESFSDETKHQIPYLICWSYLGELYYRTGKNCIKEFVEEILSYNVDIILYAWYGSGYDYQHVLPYMKSKCIKDKYIIKNNMITYGELYYENAIIYLKDPYLFILTSLDKASKAFNVINKGEFPHSIIHSWEDLNKILPNWVKIQKRMIEYKDDNKLNIYYKNIEIFENDRNYNTILENAIEYCKVDVLAMEKVWIKFKKLLEKNLNITVSVKTFTLSQLSMKIMESKLPKYVKLYVPTLEEYSKIRNAIYGGRVISKNGIYEENIVYADVVSLYPSAMKLLKHSYGKPKLVDYIDFEKHGIYRVTLLNKHDQEPKNYLNFVPRRINRKLTWEWFKIHEGWYHTYDLIIAKSEGFDIYCHEGFEYPEKDYIFNDFIDTLYSMKETHTACSCEEQPCPIRMVAKIALNGGGYGKFVQKPIDKEIYIVKRDVVAGECDKLQENENGEICIGKRLVKRPLFYNLDSENYDKMIIEKEDEPIYSTQCGISILSASRYRLYKLCKQFENIDIIYSDTDSIFVKQKSVDWELFKSKCGSELGQLDSTIDDTKNAIISKMYIGGAKMYAFEYLNNKNKLITKLHCKGVPNYMLSLNQFKYLMESPDNTIAYKFEIIRRKLVNVITKDLIKDIKQT
B4: S370Q: TP-DNAP2 variant (protein, listed as Kluyveromyces lactis)
chain: B3 chain with S370Q
B5: Y424Q: TP-DNAP2 variant (protein, listed as Kluyveromyces lactis)
chain: B3 chain with Y424Q

Key:
p2-encoded leu2* = experiment: p2 leu2* fluctuation tests in GA-Y021 (p2 mutation rate reporter strain); type: cell-based, S. cerevisiae; conditions: for change in p2 mutation rate by TP-DNAP1: GA-Y021, noncognate polymerase in trans, mutual orthogonality experiment; for fold increase of p2 mutation rate: GA-Y021, mutual orthogonality experiment, 48 replicates; for Per-base substitution rate pf p2: TP-DNAP2 variant in trans, wt TP-DNAP2 in cis, (95% C.I.); for Per-base substitution rate pf p2 / fold increase of p2 substitution mutation rate: 36 replicates; for Fold increase: p2 substitution rate over no variant in trans; for fold increase of p2 substitution mutation rate: reconfirmation
Method in brief: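 Yeast GA-Y021 carrying wt TP-DNAP2 plus variants in trans; replicate cultures grown 48 h at 30° C in pH 5.8 SC dropout, spot-plated on leucine-free medium, colonies counted after 5 days. m by p0 method (six replicates) or Ma-Sandri-Sarkar MLE (36–48 replicates), normalized to titer, p2 copy number (mKate2) and 2.33 bp target.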

genomic URA3 locus = experiment: Fluctuation tests of genomically encoded URA3 in the presence of TP-DNAP2 variants (AR-Y436); type: cell-based, S. cerevisiae; conditions: for per-base substitution rate at genomic URA3 locus: TP-DNAP2 in trans, AR-Y436, (95% C.I.); for host genomic mutation rate: error-prone TP-DNAP2 variant present
Method: Fluctuation tests using genomically encoded URA3 were performed in the presence of TP-DNAP2 variants to determine the genomic per-base substitution rates, similarly to previously described protocols (Lang and Murray, 2008, Genetics, 178:67-82). AR-Y292 derived strains harboring the appropriate TP-DNAP2 variant encoded on a CEN6/ARS4 vector (with a HIS3 marker) were grown in liquid SC medium lacking uracil and histidine until saturation. Each strain was diluted 1:5,000 into SC medium lacking histidine and aliquoted into 48 replicates of 200 μL each. Cultures were grown for 48 hours at 30° C. to reach saturation. Saturated cultures were washed with 400 μL 0.9% NaCl and resuspended in 420 μL 0.9% NaCl. 400 μL from each replicate was spot plated on pre-dried solid SC medium lacking histidine and supplemented with 5-FOA (1 g/L). The residual 20 μL from six replicates were pooled, diluted, and plated on solid YPD medium to determine cell titers. Plates were allowed to dry before incubation at 30° C. Colonies were counted on titer plates after 2 days, and on spot plates after 5 days of growth. The expected number of mutants (m) was calculated using the MSS maximum likelihood estimator method via the FALCOR tool, and corrected for partial plating, as described above. To determine per-base substitution rates, the corrected m was normalized to the average cell titer, the URA3 copy number (1 in haploid yeast), and the target size for 5-FOA resistance via substitutions in URA3 (104 bp). 95% confidence intervals were similarly scaled.
Like p1 replication by TP-DNAP1, p2 replication by TP-DNAP2 occurs in the cytoplasm via a protein-primed mechanism, making it likely that p2 replication is orthogonal to host genome replication. To test this, CEN6/ARS4 vectors lacking TP-DNAP2, or encoding codon optimized versions of TP-DNAP2^WT, TP-DNAP2^S370Q, or TP-DNAP2^Y424Q were transformed into AR-Y436. AR-Y436 contains wt p1 and p2, as well as an intact URA3 locus in the host genome. Genomic per-base substitution rates were determined via fluctuation tests based on the frequency of 5-FOA resistant clones arising from mutations in the genomic URA3 locus, as previously described (Ravikumar et al., 2014, Nature Chemical Biology, 10:175-177; Lang and Murray, 2008, Genetics, 178:67-82). The substitution rich spectrum of URA3-disabling mutations makes this assay ideal for detecting whether the elevated substitution rate of TP-DNAP2^S370Q or TP-DNAP2^Y424Q contributes to genomic mutation. No increase in the host genomic mutation rate was observed when error-prone variants of TP-DNAP2^S370Q and TP-DNAP2^Y424Q were present (Table 8).

| Molecule | change in p2 mutation rate by TP-DNAP1 (p2-encoded leu2*) | specificity for p2 over p1 (p2-encoded leu2*) | mutation rate of p2-delORF1-mUL* replication (p2-encoded leu2*; GA-Y021, wt TP-DNAP2 encoded on p2) | per-base substitution rate at genomic URA3 locus (genomic URA3 locus) | fold increase of p2 mutation rate (p2-encoded leu2*) [fold] | Per-base substitution rate pf p2 (p2-encoded leu2*) | Fold increase (p2-encoded leu2*) | fold increase of p2 substitution mutation rate (p2-encoded leu2*) [fold] | host genomic mutation rate (genomic URA3 locus) |
| --- | --- | --- | --- | --- | --- | --- | --- | --- | --- |
| B1 | no statistically significant change |  |  |  |  |  |  |  |  |
| B2 | no effect |  |  |  |  |  |  |  |  |
| B3 |  | at least 29 fold | 5.96×10^−10 s.p.b. | 2.2 (1.2-3.4) ×10^−10 |  |  |  |  |  |
| B4 |  |  |  | 1.8 (1.0-2.8) ×10^−10 | 29 | 83.0 (62.8-105) ×10^−10 | 13.9 | ~14 | No increase |
| B5 |  |  |  | 1.8 (1.0-2.9) ×10^−10 | 16 | 77.5 (56.9-100) ×10^−10 | 13.0 | ~13 | No increase |
